# T1: thermostable variant of Streptomyces mobaraensis transglutaminase (Streptomyces mobaraensis, UniProt P81453 79-407)
# T1 sequence: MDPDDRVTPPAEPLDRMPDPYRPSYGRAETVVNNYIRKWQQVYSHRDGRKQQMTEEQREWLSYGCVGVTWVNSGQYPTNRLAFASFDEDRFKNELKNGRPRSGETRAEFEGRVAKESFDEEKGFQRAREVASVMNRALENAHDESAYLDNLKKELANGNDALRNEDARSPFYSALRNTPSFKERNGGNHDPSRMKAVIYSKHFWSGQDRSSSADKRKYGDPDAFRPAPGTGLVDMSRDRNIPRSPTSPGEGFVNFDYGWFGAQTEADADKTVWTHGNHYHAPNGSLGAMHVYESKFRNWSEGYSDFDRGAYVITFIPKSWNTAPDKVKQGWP
# Experiments:
# [1] = molecular target: T1, thermostable variant of Streptomyces …; assay: cell-based or functional assay
# [2] = molecular target: T1, thermostable variant of Streptomyces …; assay: cell-based or functional assay; remark: listed apart in the source
Binder,Improvement in pH responsiveness of inhibitory peptide relative to WT [1],Improvement in binding affinity of inhibitory peptide relative to WT [2]
MINGAGEETKSYAETYRLTADDVANINALNESAPAASSAGPSFRAP [pro-peptide variant D2I],> 1.2 fold,> 1.2 fold
MTNGAGEETKSYAETYRLTADDVANINALNESAPAASSAGPSFRAP [pro-peptide variant D2T],> 1.2 fold,> 1.2 fold
MDNGAGEETKSYAETYRFTADDVANINALNESAPAASSAGPSFRAP [pro-peptide variant L18F],–,> 1.2 fold
MDNGAGSETKSYAETYRLTADDVANINALNESAPAASSAGPSFRAP [pro-peptide variant E7S],> 5 fold,> 1.2 fold
MDNGAGNETKSYAETYRLTADDVANINALNESAPAASSAGPSFRAP [pro-peptide variant E7N],> 5 fold,> 1.2 fold
MQNGAGEETKSYAETYRLTADDVANINALNESAPAASSAGPSFRAP [pro-peptide variant D2Q],> 1.2 fold,> 1.2 fold
MDNGAGHETKSYAETYRLTADDVANINALNESAPAASSAGPSFRAP [pro-peptide variant E7H],–,> 1.2 fold
MDNGAGEETKSYAETYRLTADDVANVNALNESAPAASSAGPSFRAP [pro-peptide variant I26V],–,> 1.2 fold
MFNGAGEETKSYAETYRLTADDVANINALNESAPAASSAGPSFRAP [pro-peptide variant D2F],–,> 1.2 fold
MSNGAGEETKSYAETYRLTADDVANINALNESAPAASSAGPSFRAP [pro-peptide variant D2S],> 1.2 fold,> 1.2 fold
MDNGAGEVTKSYAETYRLTADDVANINALNESAPAASSAGPSFRAP [pro-peptide variant E8V],–,> 1.2 fold
MDNGAGDETKSYAETYRLTADDVANINALNESAPAASSAGPSFRAP [pro-peptide variant E7D],–,> 1.2 fold
MDNGAGEETKSYAKTYRLTADDVANINALNESAPAASSAGPSFRAP [pro-peptide variant E14K],> 5 fold,–
MDNGAGEETKSYAETYRCTADDVANINALNESAPAASSAGPSFRAP [pro-peptide variant L18C],> 1.2 fold,–
MDNGAGEITKSYAETYRLTADDVANINALNESAPAASSAGPSFRAP [pro-peptide variant E8I],–,> 1.2 fold
MDNGAGEETKSYAETYRLTADDVMNINALNESAPAASSAGPSFRAP [pro-peptide variant A24M],–,> 1.2 fold
MPNGAGEETKSYAETYRLTADDVANINALNESAPAASSAGPSFRAP [pro-peptide variant D2P],> 5 fold,> 1.2 fold
MDNGAGRETKSYAETYRLTADDVANINALNESAPAASSAGPSFRAP [pro-peptide variant E7R],–,> 1.2 fold
MDNGAGEETKSYAETYRLTADSVANINALNESAPAASSAGPSFRAP [pro-peptide variant D22S],> 1.2 fold,–
MDNGAGEETKSYAETYRLTAKDVANINALNESAPAASSAGPSFRAP [pro-peptide variant D21K],–,> 1.2 fold
MDNGAGEETKSYAETYRLTADDVCNINALNESAPAASSAGPSFRAP [pro-peptide variant A24C],> 1.2 fold,–
MDNGAGEETKSYAETYRLTADHVANINALNESAPAASSAGPSFRAP [pro-peptide variant D22H],–,> 1.2 fold
MDNGAGEETKSYAYTYRLTADDVANINALNESAPAASSAGPSFRAP [pro-peptide variant E14Y],> 5 fold,–
MDNGAGEETKSYAETYRLTATDVANINALNESAPAASSAGPSFRAP [pro-peptide variant D21T],> 1.2 fold,–
MDNGAGEETKSYAETYRLTADNVANINALNESAPAASSAGPSFRAP [pro-peptide variant D22N],–,> 1.2 fold
MDNGAGEETKSYAETYRLTADDVANINALNESAPAASSAGPSFRA [pro-peptide truncation variant ΔP46],> 1.2 fold,> 1.2 fold
MDNGAGEETKSYAETYRLTADDVANINALNESAPAAS [pro-peptide truncation variant ΔS38-P46],> 1.2 fold,–

# Now from value to binder:
Improvement in pH responsiveness of inhibitory peptide relative to WT [1],Improvement in binding affinity of inhibitory peptide relative to WT [2],Binder
–,> 1.2 fold,MDNGAGEEPKSYAETYRLTADDVANINALNESAPAASSAGPSFRAP [pro-peptide variant T9P]
> 1.2 fold,–,MDNGAGEETKSRAETYRLTADDVANINALNESAPAASSAGPSFRAP [pro-peptide variant Y12R]
> 1.2 fold,–,MDNGAGEETKSYAETYRRTADDVANINALNESAPAASSAGPSFRAP [pro-peptide variant L18R]
> 1.2 fold,–,MDNGAGEETKSYAETYRGTADDVANINALNESAPAASSAGPSFRAP [pro-peptide variant L18G]
> 1.2 fold,–,MDNGAGEETKTYAETYRLTADDVANINALNESAPAASSAGPSFRAP [pro-peptide variant S11T]
> 1.2 fold,–,MDNGAGEETKSYAETYRLTADDVANINALNESAPAASRAGPSFRAP [pro-peptide variant S38R]
–,> 1.2 fold,MDNGAGEETKSYAEQYRLTADDVANINALNESAPAASSAGPSFRAP [pro-peptide variant T15Q]
> 1.2 fold,–,MDNGAGEETKSYAETYRLTADDVANINALNESAPAASSAGPSFRAF [pro-peptide variant P46F]
> 1.2 fold,–,MDNGAGEETKSYAETYRVTADDVANINALNESAPAASSAGPSFRAP [pro-peptide variant L18V]
> 1.2 fold,–,MDNGAGEETKAYAETYRLTADDVANINALNESAPAASSAGPSFRAP [pro-peptide variant S11A]
–,> 1.2 fold,MDNGAGEEDKSYAETYRLTADDVANINALNESAPAASSAGPSFRAP [pro-peptide variant T9D]
> 1.2 fold,–,MDNGAGEESKSYAETYRLTADDVANINALNESAPAASSAGPSFRAP [pro-peptide variant T9S]
> 1.2 fold,–,MDNGAGEETKSYAETYRLTADDVANINALNESAPAASSAGPSFRAM [pro-peptide variant P46M]
–,> 1.2 fold,MDNGAGEECKSYAETYRLTADDVANINALNESAPAASSAGPSFRAP [pro-peptide variant T9C]
> 5 fold,–,MDNGAGEETKSYAETYRLTADDVANINALNESAPAASSAGPSFRAG [pro-peptide variant P46G]
–,> 1.2 fold,MDNGAGEEIKSYAETYRLTADDVANINALNESAPAASSAGPSFRAP [pro-peptide variant T9I]
–,> 1.2 fold,MDNGAGEEEKSYAETYRLTADDVANINALNESAPAASSAGPSFRAP [pro-peptide variant T9E]

# Source: patent US20250304927A1, “PRO-PEPTIDE VARIANTS FOR MODULATING ACTIVITY OF TRANSGLUTAMINASES” (CURIE CO. INC., priority 2022, published 2025)
